Three substances from PMC11784651 can be followed below.

In test [1] the target is Biotinylated human CD38-Avi-His (human). In words: SPR.
Test [2] has as its target CD38 (soluble, in the SEC-MALS and electron microscopy of the ISB 1442/CD38 complex) (human). In words: SEC-MALS. In general terms: SEC sorts molecules by how far they enter the pores of the column.
Test [3] concerns the target Biotinylated human CD38-Avi-His (Acrobiosystems, catalog NO: CD8-H82E7) (human). Briefly: SPR. On the technique in general: Surface plasmon resonance follows binding to a sensor surface in real time, without labels.
In test [4] the target is ISB 1442, CD47 x CD38 bispecific biparatopic antibody (2 + 1 BEAT format) (human). Briefly: flow cytometry on cells.

A word on the Kd: it is a measure of binding affinity in units of concentration. A low value points to tighter binding.

ISB 1442 (bispecific antibody) displayed a Kd in test [1] below 0.01 nM. For the substance “ISB 1442, CD47 x CD38 bispecific biparatopic antibody (2 + 1 BEAT format) (bispecific antibody)”, in test [2], the stoichiometry N (ISB 1442 per CD38 (2:2 complex)) was determined as 1. For the same substance, the fold slower dissociation at 300 RU than at 10 RU CD38 surface density in test [3] came to 5.8 fold.

Consider “soluble CD38 (sCD38) (domain or fragment)”, for which the molar ratio CD38/antibody at IC50 (mol CD38 per mol antibody) in test [4] worked out at 2.32.
